Measurements published in publication PMC9801508, “A Cell-Permeant Nanobody-Based Degrader That Induces Fetal Hemoglobin” (ACS Central Science, 2022).
Substitutions are numbered along the chain they refer to.

B1: Nanobody wt2D9 (initial hit) (VHH)
VHH: QVQLVESGGGLVQAGGSLRLSCAASGSIFVNNAMGWYRQAPGKERELVAAISASGGSTYYADSVKGRFTISRDNAKNTVYLQMNSLKPEDTAVYYCAADQDVYPYEYWGQGTQVTVSS
notes: initial synthetic nanobody hit of the yeast surface display screen; parent of 2D9 (2D9_V102G): as the chain of PDB 7UTG with V instead of G at 102; source: E. coli
B2: Nanobody 2D9 (2D9_V102G) (VHH)
VHH: B1 VHH with V102G
notes: also called Nb 2D9; source: purified
B3: Nanobody 2D9_W108L (VHH)
VHH: B1 VHH with W108L
notes: wt2D9 is as 2D9 of PDB 7UTG but with V at 102; By its name a single mutant of wt2D9, a sibling of 2D9_V102G; the reversion at 102 against PDB 7UTG is worked out from the names

Experiments:
[1] = molecular target: T1, BCL11A extended zinc finger domain (exZnF23) (Homo sapiens, UniProt Q9H165); test: pull-down; wt2D9 and BCL11A (Figure S1b); details in the Supporting Information
T1 construct: Monomeric by SEC-MALS; also called exZnF23A; BCL11A exZnF23; source: E. coli, purified
T1 sequence (Q9H165 whole entry, looked up, the tested form may be a part): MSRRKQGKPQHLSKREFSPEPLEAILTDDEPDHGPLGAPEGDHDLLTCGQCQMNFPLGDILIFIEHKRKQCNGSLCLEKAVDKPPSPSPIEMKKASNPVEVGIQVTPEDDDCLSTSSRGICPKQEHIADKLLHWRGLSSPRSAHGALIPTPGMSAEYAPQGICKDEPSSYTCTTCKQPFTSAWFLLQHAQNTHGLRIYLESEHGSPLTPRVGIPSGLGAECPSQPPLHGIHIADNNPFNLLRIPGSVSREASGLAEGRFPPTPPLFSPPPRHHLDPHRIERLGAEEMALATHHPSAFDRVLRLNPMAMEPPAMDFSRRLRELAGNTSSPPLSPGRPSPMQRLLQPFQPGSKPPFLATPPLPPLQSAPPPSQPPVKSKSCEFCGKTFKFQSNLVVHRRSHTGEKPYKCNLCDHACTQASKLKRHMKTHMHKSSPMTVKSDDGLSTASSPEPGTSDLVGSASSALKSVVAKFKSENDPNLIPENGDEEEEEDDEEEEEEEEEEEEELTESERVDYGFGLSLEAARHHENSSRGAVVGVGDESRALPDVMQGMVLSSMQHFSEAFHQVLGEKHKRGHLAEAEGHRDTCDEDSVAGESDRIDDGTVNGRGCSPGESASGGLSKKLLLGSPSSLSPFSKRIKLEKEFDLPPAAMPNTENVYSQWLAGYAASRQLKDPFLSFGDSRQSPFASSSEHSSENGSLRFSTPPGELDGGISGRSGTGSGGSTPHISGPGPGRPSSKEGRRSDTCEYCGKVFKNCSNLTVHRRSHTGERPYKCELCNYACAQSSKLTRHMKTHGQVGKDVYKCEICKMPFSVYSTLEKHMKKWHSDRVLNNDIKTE

[2] = molecular target: T2, endogenous, full-length BCL11A (Homo sapiens (HUDEP-2 cells), UniProt Q9H165); test: pull-down; purified 2D9 or ZF5.3-2D9 added into the lysate of HUDEP-2 cells; endogenous BCL11A detected (the legend calls it immunoprecipitation); details: one partner purified
T2 construct: BCL11A, transcription factor and repressor of fetal globin genes, endogenous in HUDEP-2 cells; also called endogenous BCL11A; source: endogenous, HUDEP-2 lysate; endogenous, in HUDEP-2 cells
T2 sequence (Q9H165 whole entry): as the sequence (Q9H165 whole entry, looked up, the tested form may be a part) above

[3] = molecular target: T1, BCL11A extended zinc finger domain …; test: pull-down; read by SDS-PAGE (Figure 1C); the legend names only an SDS-PAGE analysis; who was held is not told; methods in the Supporting Information; details: both partners purified

Row | Binder | binding result [1] | binding result [2] | binding result [3]
1 | B1 | binds |  | 
2 | B2 |  | binds | binds
3 | B3 |  |  | binds
